Among the data in publication PMC6458997, “Deciphering the Molecular Mechanism Underpinning Phage Arbitrium Communication Systems” (Molecular Cell, 2019) are screen value values, retold here.

B1: unnamed (parent)
chain 1: MELIRIAMKKDLENDNSLMNKWATVAGLKNPNPLYDFLNHDGKTFNEFSSIVNIVKSQYPDREYELMKDYCLNLDVKTKAARSALEYADANMFFEIEDVLIDSMISCSNMKSKEYGKVYKIHRELSNSVITEFEAVKRLGKLNIKTPEMNSFSRLLLLYHYLSTGNFSPMAQLIKQIDLSEISENMYIRNTYQTRVHVLMSNIKLNENSLEECREYSKKALESTNILRFQVFSYLTIGNSLLFSNYELAQENFLKGLSISVQNENYNMIFQQALCFLNNVWRKENKWINFESDSIMDLQEQAHCFINFNENSKAKEVLDKLDLLVHNDNELAMHYYLKGRLEQNKACFYSSIEYFKKSNDKFLIRLPLLELQKMGENQKLLELLLL
chain 2: not shown

Variants of B1 are the subject of the test. Kind of test: thermal shift assay. Conditions: with partner chain of the complex shown; AimR + AimP; one of three independent experiments.
As to chain 1 N202A, the screen value was 50.9 °C.
As for chain 1 D360A, the screen value amounted to 44.4 °C.
